Publication PMC7755605, “The Interaction of TRAF6 With Neuroplastin Promotes Spinogenesis During Early Neuronal Development” (Frontiers in Cell and Developmental Biology, 2020)

Molecular target: T1, N-terminally GST-tagged TRAF6 (mouse, UniProt P70196 1-530)
T1 construct: TNF receptor-associated factor 6 (TRAF6), mouse; amplified by PCR with primers from the start codon to the stop codon; 530 residues by the printed limits of the cc-c construct; also called GST-TRAF6; purified recombinant TRAF6; source: E. coli BL21 (DE3), purified (GST bulk kit); not shown: GST, N-terminal, kept
T1 sequence (looked up): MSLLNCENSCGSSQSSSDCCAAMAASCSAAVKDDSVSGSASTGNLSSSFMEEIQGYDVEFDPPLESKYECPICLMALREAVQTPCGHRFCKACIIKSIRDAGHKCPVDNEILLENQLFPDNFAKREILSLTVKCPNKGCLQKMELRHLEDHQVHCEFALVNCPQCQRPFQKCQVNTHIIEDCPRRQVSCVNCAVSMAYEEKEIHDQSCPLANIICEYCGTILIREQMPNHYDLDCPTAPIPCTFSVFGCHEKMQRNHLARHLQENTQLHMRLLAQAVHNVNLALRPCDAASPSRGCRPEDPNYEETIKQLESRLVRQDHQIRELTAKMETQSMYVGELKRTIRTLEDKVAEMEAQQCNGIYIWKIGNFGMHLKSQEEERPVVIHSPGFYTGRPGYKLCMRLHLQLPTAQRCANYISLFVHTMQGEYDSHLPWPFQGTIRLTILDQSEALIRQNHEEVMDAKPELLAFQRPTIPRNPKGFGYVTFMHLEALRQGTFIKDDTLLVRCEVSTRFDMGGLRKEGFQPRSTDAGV
Test: SPR; BIACORE X100, single cycle kinetics; GST-TRAF6 amine-coupled on a CM5 chip, GST-coated sensor as reference; neuroplastin peptide injected at 2.5, 5, 100, 200 and 400 uM; HBS-P buffer
Conditions: both partners purified

B1: neuroplastin intracellular peptide containing the TRAF6 binding motif (peptide)
chain: EKRKRPDEVPDAGPMKTNSTNNHKDKNLRQRNTN
modifications: Peptide limits are not printed (possibly in the figure or supplement). The whole cytoplasmic tail is taken by convention from the UniProt topology; it should contain the printed motif RKRPDEVPD. …
B1 was tested, and the Kd was 88 µM and the “stoichiometry N” value was 1.
